The results in this text go back to the RNAGym collection of RNA variant scans (doi:10.1021/acssynbio.7b00057).

Sequences and labels used below:
B1: Pistol ribozyme (parent)
chain: GGGUCGUUGUUCCAUAAUCGCGUGGAUAUGGCACGCAAGUUUCUACCGGGCACCGUAAAUGUCCGACUGGAGCCGUUCGGGCGGCUAUAAACAGACCUCAGGCCCGAAGCGUGGCGGCACCUGCCGCCGGUGGUAAAAAAGAUCGGAAGAGCACACGUCU

In this data set the parent is B1. As to the kind of experiment: aptazyme ON/OFF ratio, guanine; higher = stronger switching; co-transcriptional cleavage with and without guanine.
U7C U8C G9U U10A U11A C12U C13U: the “aptazyme ON/OFF ratio” value was determined as 1.18.

Turning to U7A G9A U11C C12A C13G, the “aptazyme ON/OFF ratio” value came to 1.14.

On to U7A G9C U10G C13U, for which the “aptazyme ON/OFF ratio” value turned out to be 1.33.

For the variant U7A G9C U10A U11C C12U, the “aptazyme ON/OFF ratio” value is 1.07.

As for U7G U8C G9C C12G C13G, the “aptazyme ON/OFF ratio” value amounted to 1.12.

U7C U8G U11C C12G C13G: the “aptazyme ON/OFF ratio” value was found to be 1.17.

Consider U8G U10G U11G C12A C13U, for which the “aptazyme ON/OFF ratio” value is 1.18.

With U7G U8G G9C U11A C13A, the “aptazyme ON/OFF ratio” value was found to be 1.15.

As to U7G U8C G9U U10G C12G C13A, the “aptazyme ON/OFF ratio” value was 1.28.

Consider G9A U10G U11G C12G C13A, for which the “aptazyme ON/OFF ratio” value was determined as 1.16.

On to U8A G9C U11C C12G C13G, for which the “aptazyme ON/OFF ratio” value turned out to be 1.05.

For U7C U8A G9U U11C C13U, the “aptazyme ON/OFF ratio” value came to 1.03.

On to U7A U8A G9A U10A C12U, for which the “aptazyme ON/OFF ratio” value amounted to 1.23.

Take G9U U10G U11A C12U C13G: the “aptazyme ON/OFF ratio” value worked out at 1.24.

For the variant U7A U8G G9C U10C U11A C12A, the “aptazyme ON/OFF ratio” value worked out at 1.21.

With U8G G9A U10C U11C C12U C13U, the “aptazyme ON/OFF ratio” value came to 1.03.

As for U7A G9U U11G C12G C13G, the “aptazyme ON/OFF ratio” value is 1.32.

Regarding U7G U8C G9A U10A U11G C12G C13A, the “aptazyme ON/OFF ratio” value is 1.08.

Turning to U7C U8G U10A U11G C12A C13U, the “aptazyme ON/OFF ratio” value stood at 1.12.

On to U7A G9U U10A U11G C13G, for which the “aptazyme ON/OFF ratio” value was found to be 1.07.

For the variant U7G U8G G9U U10C C12G C13A, the “aptazyme ON/OFF ratio” value came out at 1.24.

Regarding U7C U8C G9U U11G C12U C13U, the “aptazyme ON/OFF ratio” value amounted to 1.09.

U7A U8G G9U U10A C12U C13A: the “aptazyme ON/OFF ratio” value came out at 1.32.

For U8A G9A U10A U11A C12G C13G, the “aptazyme ON/OFF ratio” value turned out to be 1.18.

For U7G U8C U11C C13A, the “aptazyme ON/OFF ratio” value came out at 1.3.

U7C U8A G9C U11A C12U C13U: the “aptazyme ON/OFF ratio” value worked out at 1.2.

For U7A U8C G9C U10C U11C C12A, the “aptazyme ON/OFF ratio” value is 1.05.

Consider U7A G9C U11C, for which the “aptazyme ON/OFF ratio” value is 1.07.

On to U7A U8A G9A U10A U11G C13U, for which the “aptazyme ON/OFF ratio” value was 1.16.

U7A U8C G9A U10C U11G: the “aptazyme ON/OFF ratio” value was 1.16.

As for U7A U8C G9U U11C C12G C13U, the “aptazyme ON/OFF ratio” value amounted to 1.18.

Consider U7A U8C G9A U10A C12U C13G, for which the “aptazyme ON/OFF ratio” value amounted to 1.2.

As for U8G G9A C12U C13A, the “aptazyme ON/OFF ratio” value turned out to be 1.25.

U7G U10G U11C C12G: the “aptazyme ON/OFF ratio” value amounted to 1.25.

As for U8A G9U U10A C12U C13G, the “aptazyme ON/OFF ratio” value was found to be 1.18.

In the case of U8A U11A C12A C13A, the “aptazyme ON/OFF ratio” value turned out to be 1.15.

Consider U7C U8C G9C U10G U11C C12G C13A, for which the “aptazyme ON/OFF ratio” value turned out to be 1.14.

For the variant U7C U8C G9A U10G C12A C13A, the “aptazyme ON/OFF ratio” value was 1.13.

As to G9C U10G U11A C12U C13U, the “aptazyme ON/OFF ratio” value came out at 1.08.

Regarding U8A U10A U11C C12G C13U, the “aptazyme ON/OFF ratio” value amounted to 1.16.

U7G U8G G9A U10G U11G C12U C13U: the “aptazyme ON/OFF ratio” value was found to be 1.11.

On to U7A U10A U11A C12A C13A, for which the “aptazyme ON/OFF ratio” value amounted to 1.23.

Regarding G9C U10G U11G C13A, the “aptazyme ON/OFF ratio” value is 1.09.

In the case of U7G G9A U10C U11C C12U C13A, the “aptazyme ON/OFF ratio” value worked out at 1.05.

Turning to U7A G9U U10C U11A C12G C13G, the “aptazyme ON/OFF ratio” value was found to be 1.14.

Regarding G9A U10G C12G C13A, the “aptazyme ON/OFF ratio” value amounted to 1.19.

For U7G U8C U10C C12U C13A, the “aptazyme ON/OFF ratio” value came out at 1.15.

Turning to U7A U8A U10A U11G C12G C13U, the “aptazyme ON/OFF ratio” value amounted to 1.35.

Consider U7G U8C G9A U10C U11C C13A, for which the “aptazyme ON/OFF ratio” value came to 1.02.

Turning to U7A U8A G9C U10G U11C, the “aptazyme ON/OFF ratio” value worked out at 1.1.

On to U7G U8G G9U U10G C12U C13G, for which the “aptazyme ON/OFF ratio” value stood at 1.21.

For U7A U8G G9A U10A U11A C12U C13A, the “aptazyme ON/OFF ratio” value came out at 1.2.

With U7G G9U U10C C12U C13G, the “aptazyme ON/OFF ratio” value turned out to be 1.31.

Turning to U7A U8G G9C U10C U11C C12G C13A, the “aptazyme ON/OFF ratio” value stood at 1.29.

As to U7G G9A U11G C12U C13A, the “aptazyme ON/OFF ratio” value amounted to 1.09.

Regarding G9C U11C C12G C13U, the “aptazyme ON/OFF ratio” value came out at 1.19.

As to U7A U8A G9U U10G U11C C12A, the “aptazyme ON/OFF ratio” value was found to be 1.33.

As to U7A U8C U10G U11G C12A C13G, the “aptazyme ON/OFF ratio” value was 1.15.

Consider U7A U8G G9U U11C C12A C13U, for which the “aptazyme ON/OFF ratio” value came out at 1.11.

For U7C U8G G9U C13G, the “aptazyme ON/OFF ratio” value worked out at 1.06.

Consider U7G U8G U10A U11G C12G, for which the “aptazyme ON/OFF ratio” value was found to be 1.2.

As for U8A G9U U10G U11A C12A C13U, the “aptazyme ON/OFF ratio” value amounted to 1.47.

As for U8A G9A U10A U11G, the “aptazyme ON/OFF ratio” value is 1.34.

Regarding U7A U8G G9C U10C C13G, the “aptazyme ON/OFF ratio” value amounted to 1.1.

As to U7C G9C U11C C12G C13A, the “aptazyme ON/OFF ratio” value turned out to be 1.04.

With U7A U8A G9U U11C C12G C13A, the “aptazyme ON/OFF ratio” value was determined as 1.18.

For the variant U7A U8A G9C U10G U11C C12A C13A, the “aptazyme ON/OFF ratio” value was determined as 1.19.

As to U7G U8C G9C U10A U11C C13A, the “aptazyme ON/OFF ratio” value amounted to 1.41.

Turning to U7A U8G G9C U10G U11A C12U C13G, the “aptazyme ON/OFF ratio” value was determined as 1.23.

Regarding U7C G9A U10G U11G C13U, the “aptazyme ON/OFF ratio” value worked out at 1.17.

On to U8C G9C U10G U11A C12U, for which the “aptazyme ON/OFF ratio” value worked out at 1.02.

With U7G U8C G9A U10C U11C C12U C13U, the “aptazyme ON/OFF ratio” value stood at 1.06.

Consider U7C U8C G9U C12U C13A, for which the “aptazyme ON/OFF ratio” value came to 1.06.

As to U7G U8G G9A U10C U11G C12G C13U, the “aptazyme ON/OFF ratio” value stood at 1.08.

Regarding U7G G9A U11G, the “aptazyme ON/OFF ratio” value was determined as 1.64.

With U7G G9A U10C U11A, the “aptazyme ON/OFF ratio” value was 2.37.

In the case of U7C U8A G9C U10A C12A, the “aptazyme ON/OFF ratio” value was 1.2.

Turning to U7C U8C G9U U10G U11A C12U C13A, the “aptazyme ON/OFF ratio” value is 1.1.

Consider U7C U8C U10G U11G C12G C13A, for which the “aptazyme ON/OFF ratio” value is 1.13.

In the case of U7C G9C U11A C12A C13A, the “aptazyme ON/OFF ratio” value was 1.08.

As for U7A U8G G9C U10A U11C C12U C13G, the “aptazyme ON/OFF ratio” value was 1.59.

As to U8G G9A U10C U11G C12G, the “aptazyme ON/OFF ratio” value stood at 1.45.

On to U7G U8C U10A U11G C12G C13G, for which the “aptazyme ON/OFF ratio” value was 1.3.

On to U7G U8C U10A U11G C12U C13A, for which the “aptazyme ON/OFF ratio” value came out at 1.22.
